Read-outs that look alike come from different tables or passages of the source.
Legend:
Assay in all cases: smFRET
yNhp6A [1] = biological target: T1, yNhp6A (Saccharomyces cerevisiae, UniProt P11632 1-93)
yNhp6A [2] = biological target: T1, yNhp6A; remark: listed apart in the source
yNhp6A [3] = biological target: T1, yNhp6A; remark: listed apart in the source
yNhp6A [4] = biological target: T1, yNhp6A; remark: listed apart in the source

T1 sequence (P11632 whole entry): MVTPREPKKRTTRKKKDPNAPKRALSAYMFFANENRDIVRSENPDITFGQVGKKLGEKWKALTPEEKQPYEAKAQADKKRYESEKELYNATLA

B1: linear_18a (dsDNA)
DNA 1: TGGCGACGGCAGCGAGGC
DNA 2: GCCTCGCTGCCGTCGCCATTTTTTTTTTTTTTT
B1 gave a Kd (yNhp6A [1]) of about 1 nM.

B2: bulge_18a (dsDNA)
DNA 1: TGGCGACGGAACAGCGAGGC
DNA 2: GCCTCGCTGCCGTCGCCATTTTTTTTTTTTTTT
For B2, the binding signal (yNhp6A [2]) was about 2 fold kon vs linear_18a.

B3: bulge_15a (dsDNA)
DNA 1: CGACGGCAAAGCGAGGC
DNA 2: GCCTCGCTGCCGTCGCCATTTTTTTTTTTTTTT
B3: binds (yNhp6A [3]).

B4: linear_15a (dsDNA)
DNA 1: CGACGGCAGCGAGGC
DNA 2: GCCTCGCTGCCGTCGCCATTTTTTTTTTTTTTT
B4: binds (yNhp6A [3]).

B5: linear_18b (dsDNA)
DNA 1: TGGTTATATCATCTAGGC
DNA 2: GCCTAGATGATATAACCATTTTTTTTTTTTTTT
B5 was tested, and the binding signal (yNhp6A [4]) was ~2 fold affinity vs linear_18a.
